The text below walks through data of patent US20080199851A1.

The target in assay [1] is Recombinant H5 hemagglutinin. As to the kind of experiment: lateral-flow sandwich, 3C8 line + 3G4-gold, 50 uL buffer, 15 min.
Assay [2] deals with Recombinant H5 hemagglutinin. The assay is described as follows: lateral-flow sandwich, 3C8 line + 3G4-gold, 50 uL buffer, 20 min.
For assay [3], the target named is Recombinant H5 hemagglutinin. The assay is described as follows: lateral-flow sandwich, 3C8 line + 3G4-gold, 50 uL buffer, 25 min.
For assay [4], the target named is Recombinant H5 hemagglutinin. The assay is described as follows: lateral-flow sandwich, 3C8 line + 3G4-gold, 50 uL buffer, 30 min.
Assay [5] has as its target Recombinant H5 hemagglutinin. The assay is described as follows: lateral-flow sandwich, 3C8 line + 3G4-gold, 60 uL buffer, 15 min.
The target of assay [6] is Recombinant H5 hemagglutinin. As to the kind of experiment: lateral-flow sandwich, 3C8 line + 3G4-gold, 60 uL buffer, 20 min.
Assay [7] addresses Recombinant H5 hemagglutinin. The assay is described as follows: lateral-flow sandwich, 3C8 line + 3G4-gold, 60 uL buffer, 25 min.
For assay [8], the target named is Recombinant H5 hemagglutinin. As to the kind of experiment: lateral-flow sandwich, 3C8 line + 3G4-gold, 60 uL buffer, 30 min.
Assay [9] has as its target Recombinant H5 hemagglutinin. As to the kind of experiment: lateral-flow sandwich, 3C8 line + 3G4-gold, 70 uL buffer, 15 min.
In assay [10] the target is Recombinant H5 hemagglutinin. As to the kind of experiment: lateral-flow sandwich, 3C8 line + 3G4-gold, 70 uL buffer, 20 min.
In assay [11] the target is Recombinant H5 hemagglutinin. As to the kind of experiment: lateral-flow sandwich, 3C8 line + 3G4-gold, 70 uL buffer, 25 min.
Assay [12] addresses Recombinant H5 hemagglutinin. As to the kind of experiment: lateral-flow sandwich, 3C8 line + 3G4-gold, 70 uL buffer, 30 min.
Assay [13] concerns the target Recombinant H5 hemagglutinin. The assay is described as follows: lateral-flow sandwich, 3C8 line + 3G4-gold, 80 uL buffer, 15 min.
The target in assay [14] is Recombinant H5 hemagglutinin. As to the kind of experiment: lateral-flow sandwich, 3C8 line + 3G4-gold, 80 uL buffer, 20 min.
Assay [15] has as its target Recombinant H5 hemagglutinin. As to the kind of experiment: lateral-flow sandwich, 3C8 line + 3G4-gold, 80 uL buffer, 25 min.
Assay [16] has as its target Recombinant H5 hemagglutinin. As to the kind of experiment: lateral-flow sandwich, 3C8 line + 3G4-gold, 80 uL buffer, 30 min.
Assay [17] concerns the target Recombinant H5 hemagglutinin. The assay is described as follows: lateral-flow sandwich, 3C8 line + 3G4-gold, 50 uL buffer, 15 min. The source holds these as a separate data set.
For assay [18], the target named is Recombinant H5 hemagglutinin. The assay is described as follows: lateral-flow sandwich, 3C8 line + 3G4-gold, 60 uL buffer, 15 min. The source holds these as a separate data set.
Assay [19] concerns the target Recombinant H5 hemagglutinin. As to the kind of experiment: lateral-flow sandwich, 3C8 line + 3G4-gold, 70 uL buffer, 15 min. The source holds these as a separate data set.
In assay [20] the target is Recombinant H5 hemagglutinin. As to the kind of experiment: lateral-flow sandwich, 3C8 line + 3G4-gold, 100 uL buffer, 15 min.
For assay [21], the target named is Recombinant H5 hemagglutinin. As to the kind of experiment: lateral-flow sandwich, 3C8 line + 3G4-gold, 100 uL buffer, 20 min.
In assay [22] the target is Recombinant H5 hemagglutinin. The assay is described as follows: lateral-flow sandwich, 3C8 line + 3G4-gold, 100 uL buffer, 25 min.
In assay [23] the target is Recombinant H5 hemagglutinin. As to the kind of experiment: lateral-flow sandwich, 3C8 line + 3G4-gold, 100 uL buffer, 30 min.

“And” between values parts separate entries of the source, which are not always exact repeats. Equal entries are not always repeated.

B1: monoclonal antibody 3C8 (antibody, V domains shown)
VH: QIQLVQSGPELKKPGETVKISCKASGYSFTNYGMNWVKQAPGKGLKWMGWINTYTGEPAYADDFKGRFAFSLETSASTAYLQINNLKNEDTATYFCARWNRDAMDYWGQGTSVTVSS
VL: DIVLTQSPASLAVSLGQRATISCRASESVDSSDNSLMHWYQQKPGQPPKLLIYRASNLESGIPARFSGSGSRTDFTLTINPVEADDVATYYCQQSIGDPPYTFGGGTKLEIKR
For the molecule B1, the Peak Intensity in assay [1] was 55.6 and 51.1; in assay [2], 62.3 and 57.3; in assay [3], 63.1 and 55.4; in assay [4], 62.5 and 62.6; in assay [5] it was 53.5 and 51.6; in assay [6], 65.7 and 63.8. Besides, the Peak Intensity is 68.5 and 66.2 in assay [7]; 68.9 and 66.5 in assay [8]; 45.6 and 42.1 in assay [9]; 57.9 and 57 in assay [10]; 60.4 and 61.7 in [11]; 60.7 and 63.9 in assay [12]. The Peak Intensity in [13] is 39.6 and 42.9; in assay [14], 53.7 and 57.9; in [15], 59.8 and 64.7; in [16], 61.5 and 65.4; in assay [17], 56.9 and 57.8; in assay [18], 50.2 and 51.2. The Peak Intensity is 46.8 and 47.9 in [19]; 35.2 and 30.8 in [20]; 49.2 and 44.9 in assay [21]; 54.6 and 49.3 in [22]; 55.6 and 49.8 in assay [23].
